In PMC8497999 (iScience, 2021):
Positions count from the first letter of the chain named. Read-outs that look alike come from different tables or passages of the source.

Tests used:
Experiment in all cases: SEC
ACAD9-His6 R469W = molecular target: T1, ACAD9-His6 R469W (human, UniProt Q9H845 38-621, R469W)
T1 sequence: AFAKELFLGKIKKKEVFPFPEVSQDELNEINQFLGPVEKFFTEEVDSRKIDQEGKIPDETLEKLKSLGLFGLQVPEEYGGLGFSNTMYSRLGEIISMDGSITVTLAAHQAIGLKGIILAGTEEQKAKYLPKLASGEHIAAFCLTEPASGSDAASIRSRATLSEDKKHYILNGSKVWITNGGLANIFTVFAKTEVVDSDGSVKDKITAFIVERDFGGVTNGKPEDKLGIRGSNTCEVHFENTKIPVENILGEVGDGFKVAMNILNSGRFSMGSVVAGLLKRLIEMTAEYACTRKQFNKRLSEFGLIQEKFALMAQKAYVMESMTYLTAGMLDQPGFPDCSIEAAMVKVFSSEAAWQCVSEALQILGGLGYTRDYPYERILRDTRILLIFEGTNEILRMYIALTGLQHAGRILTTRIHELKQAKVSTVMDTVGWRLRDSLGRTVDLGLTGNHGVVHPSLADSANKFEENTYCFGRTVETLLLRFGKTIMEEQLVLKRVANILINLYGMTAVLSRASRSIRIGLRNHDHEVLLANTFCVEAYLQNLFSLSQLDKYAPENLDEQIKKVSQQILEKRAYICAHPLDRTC

ACAD9-His6 E426Q = molecular target: T2, ACAD9-His6 E426Q (human, UniProt Q9H845 38-621, E426Q)
T2 sequence: T1 sequence with E389Q, W432R

[1] = molecular target: T3, ACAD9 (non-tagged wild type) (human, UniProt Q9H845 38-621)
T3 sequence: T1 sequence with W432R

[2] = molecular target: T3, ACAD9 (non-tagged wild type); remark: listed apart in the source
SEC = molecular target: the molecule itself

B1: His6-ECSIT (mature human mitochondrial ECSIT with N-terminal His tag) (natural protein)
chain: SSEQSLVPSPPEPRQRPTKALVPFEDLFGQAPGGERDKASFLQTVQKFAEHSVRKRGHIDFIYLALRKMREYGVERDLAVYNQLLNIFPKEVFRPRNIIQRIFVHYPRQQECGIAVLEQMENHGVMPNKETEFLLIQIFGRKSYPMLKLVRLKLWFPRFMNVNPFPVPRDLPQDPVELAMFGLRHMEPDLSARVTIYQVPLPKDSTGAADPPQPHIVGIQSPDQQAALARHNPARPVFVEGPFSLWLRNKCVYYHILRADLLPPEEREVEETPEEWNLYYPMQLDLEYVRSGWDNYEFDINEVEEGPVFAMCMAGAHDQATMAKWIQGLQETNPTLAQIPVVFRLAGSTRELQTSSAGLEEPPLPEDHQEEDDNLQRQQQGQS
binding result (ACAD9-His6 R469W): binds
binding result (ACAD9-His6 E426Q): binds
stoichiometry N [1]: 1 monomer:monomer
stoichiometry N [2]: 1 ECSIT monomer per ACAD9 monomer (2:2)
stoichiometry N (SEC): 2
